From FireProtDB (doi:10.1016/j.bpc.2007.01.002)

Details: Equus caballus, Thermal, reversible: Yes
[1] = pH 3.8, DSC, Sodium acetate 50 mM, transition: 3
[2] = pH 4.1, DSC, Sodium acetate 50 mM
[3] = pH 4.1, DSC, Sodium acetate 50 mM, transition: 3
[4] = pH 4.5, DSC, Sodium acetate 50 mM
[5] = pH 5, DSC, Sodium acetate 50 mM
[6] = pH 5, DSC, Sodium acetate 50 mM, transition: 3

Chain of Cytochrome c wild type, P00004 (P00004 whole entry): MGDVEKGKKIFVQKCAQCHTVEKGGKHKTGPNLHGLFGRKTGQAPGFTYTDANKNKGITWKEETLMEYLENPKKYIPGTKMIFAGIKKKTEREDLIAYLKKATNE

With Cytochrome c wild type, P00004 the Tm (pH 2.9, IATC, KCl 20 mM) was 40 °C, the “unfolding enthalpy (calorimetric)” value (pH 2.9, IATC, KCl 20 mM) was 68.8 kcal/mol and the Tm [1] was 68 °C. The “unfolding enthalpy (calorimetric)” value [1] was 33.7 kcal/mol, the Tm [2] was 70 °C and the “heat capacity change of unfolding” value [2] was 1.34 kcal/mol/K. The “unfolding enthalpy (calorimetric)” value [2] was 112 kcal/mol, the Tm [3] was 69 °C and the “unfolding enthalpy (calorimetric)” value [3] was 33.7 kcal/mol. The Tm [4] was 74.1 °C, the “heat capacity change of unfolding” value [4] was 1.51 kcal/mol/K and the “unfolding enthalpy (calorimetric)” value [4] was 119 kcal/mol. For the same substance, the Tm [5] was 76.2 °C, the “heat capacity change of unfolding” value [5] was 1.39 kcal/mol/K and the “unfolding enthalpy (calorimetric)” value [5] was 124 kcal/mol. For the same substance, the Tm [6] was 73 °C and the “unfolding enthalpy (calorimetric)” value [6] was 37.5 kcal/mol.
